According to US12241094B2, “Phenazine degrading agents and related compositions, methods and systems for interfering with viability of bacteria” (priority 2016, dated 2025):
Entries after “also recorded” stand apart in the source; their conditions may differ. Where two headings read alike, the source gives them in different places.

Assays:
[1] = PYO demethylation by purified PodA30-162 and mutants (spectrophotometric/HPLC); format: biochemical
Protocol: Enzyme activity and analysis. PYO demethylation by PodA30-162 was first determined by HPLC analysis as described previously (6, 9). To detect formaldehyde evolution, 150 nM protein was mixed with 50 μM PYO in 1 mL of 20 mM Tris pH 7.6 amended with 200 μL Nash reagent (2 M ammonium acetate, 50 mM acetic acid, 20 mM acetylacetone) and incubated at 55° C. until the reaction proceeded to completion (37, 38). The products were determined by HPLC using the same method as used for phenazine quantification. To monitor the formation of reduced phenazine, protein and 50 μM PYO were placed into an anaerobic chamber (Coy Laboratory Products) under an atmosphere of H2/N2 (5:95) and left overnight before allowing the reaction to proceed. To generate reduced PYO and 1-OH-PHZ, 50 μM were mixed with 1 mM sodium dithionite. The formation of reduced phenazine products was assayed visually under UV illumination (39). A BioTek Synergy 4 microplate reader (BioTek) plate reader in the anaerobic chamber was used to measure the emission spectrum of products with excitation at 250 nm. To determine the activity of PodA30-162 in the presence of glycerol, salts, or varying pH, 30 nM protein was suspended in 500 μL buffer, 40 μM PYO was mixed with 2× solution containing the buffer of interest (500 μL), and solutions were preheated to 30 C. For pH range measurements, the following buffers were used (40 mM, adjusted with KOH): acetic acid, pH 4.9; MES, pH 5.4 and 5.7; HEPES, pH 6.1; Tris, pH 6.9 and 7.5; Bicine, pH 7.8, 8.3 and 8.7; CHES, pH 9.4. To measure reaction rates, cuvettes containing the 2×PYO solution were placed in a Evolution 260Bio UV-Vis spectrophotometer (Thermo Scientific) and 500 μL of 30 nM protein was added at time 0 (15 nM protein and 20 μM PYO, final concentration). Reaction progress was monitored by measuring absorbance at 313 nm (40) every 0.5 seconds for 5 minutes. To measure kinetic parameters (kcat, Km) 15 nM protein was used in a reaction buffer of Bicine, pH 7.8; reactions were monitored as before with measurements every 0.2 seconds. The rate from the first 10 seconds of the reaction was used for the determination of kinetic parameters. Kinetic parameters were calculated in Microsoft Excel using the Solver plug-in and fitting data to ideal Michaelis-Menton plots with non-linear regression of experimental data (41). For measurements of the rate of methoxy-PMS demethylation, 300 nM protein was used and methoxy-PMS loss from the reaction mixture was monitored at 500 nm wavelength. Methoxy-PMS was purchased from TCI America. For assays with mutant proteins, 60 nM protein was used. The stimulatory effects of flavin or 2-oxoglutarate addition was determined by adding 25 μM flavin or 2-oxoglutarate to 20 μM PYO and 15 nM PodA30-162 and monitoring the reaction. Experiments testing alternative substrates were carried out using 1 mL reaction volumes containing 20 mM Tris (pH 7.6) and 50 μg mL^−1 PodA30-162. Alternative substrates tested were 10-methylphenothiazine (AlfaAesar), phenazine methosulfate (AlfaAesar), methoxyphenazine methosulfate (TCI America), and 4-keto-N-ethylphenazine. 4-keto-N-ethylphenazine was synthesized from phenazine ethosulfate (Sigma-Aldrich) by incubating under fluorescent light overnight followed by purification by HPLC as described (6, 42). As phenazine methosulfate is light sensitive and spontaneously converts to PYO in the presence of light, all reactions were carried out in the dark, and activity was assessed by end point analysis by HPLC after 4 hours (9).

P. aeruginosa biofilm = assay: Microcolony number and size in 5 hour biofilms on succinate minimal medium; format: cell-based; conditions: 100 μM 1-OHPHZ or 0.5 μg mL-1 PodA
Source text: FIGS. 24A-C show charts and images illustrating results of exemplary experiments showing that PodA and 1-OH-PHZ inhibit the early stages of P. aeruginosa biofilm formation on succinate minimal medium. […] Numbers are averages and SD from 8 biological replicates.

B1: PodA30-162: truncated pyocyanin demethylase encoded by MFORT_14352 of Mycobacterium fortuitum lacking N-terminal helix, SEQ ID NO: 2 (protein, listed as Mycobacterium fortuitum)
chain: MDGRGGRSTTEPVTMTLDVKNDQVAKHDFGKPGMDVGDMDIFSDILSVDGKQVGYDGGACFFTNVTPDNPMTYCELTIHLDAGEIFARSLTPHTLAPFTMAITGGTGEYANSKGELTVSGVATPDEKYELKLTKAENLYFQ
Question: For B1, which “activity in presence of glycerol or KCl or NaCl salts” value ([1]; 20 μM PYO, 15 nM PodA30-162) is on record?
Answer: minimally inhibited

Question: What about the “pH regime over which enzyme operates” value ([1]; 20 μM PYO, 15 nM PodA30-162) of the same molecule?
Answer: 4.9-8.7 pH

Question: And the “pH above which activity is lost” value ([1]; 20 μM PYO, 15 nM PodA30-162, 5 minutes)?
Answer: > 9 pH

Question: What about the “activity in presence of flavins (FMN, FAD) or 2-oxoglutarate” value ([1]; 25 μM, 15 nM PodA30-162) of the same molecule?
Answer: not stimulated

Question: And the “activity under anoxic conditions” value ([1]; 50 μM PYO, anaerobic chamber)?
Answer: functions under anoxic conditions; also recorded: active

Question: And the “salt concentrations over which enzyme operates” value ([1]; KCl or NaCl)?
Answer: 0 to 400 mM

Question: And the kcat ([1]; PYO substrate, 15 nM protein, Bicine pH 7.8)?
Answer: 1.20 ± 0.07 s⁻¹

Question: And the Km ([1]; PYO substrate, 15 nM protein, Bicine pH 7.8, read-out: Km)?
Answer: < 1 µM

Question: What about the Km ([1]; best fit to Michaelis-Menton plot, 15 nM PodA30-162, PYO detection limit 0.5 μM, read-out: apparent Km) of the same molecule?
Answer: < 1 µM

Question: And the microcolony diameter (P. aeruginosa biofilm)?
Answer: decreases

Question: And the “number of microcolonies formed” value (P. aeruginosa biofilm; vs inactive E154A)?
Answer: decreases
